Results reported in paper PMC4604023.
Like-named read-outs stand apart in the source and are kept apart here.

B1: AS4 (AS-4) (structured_RNA)
RNA: GGGGCGCGUUCUAAACAACGAUUGCCGACAAGACGAUUUCUGGGUCAAACUUUAUUCG
B2: MBE87 (structured_RNA)
RNA: GGCAUUACGGCCGGGAGCCAGUAUUACUGAUUGAUGAUUCUGUGGGCGUCUUCUAG
B3: AS1 (AS-1) (structured_RNA)
RNA: GGUCGACAGGCUAGGCCGUCUAAAGCUGAUUGCUCCCGGGGAAUAAUUAUUGACAGCU
B4: AS2 (AS-2) (structured_RNA)
RNA: GGAGUAUCUGUCGGCAUCACGCUUGGAUGUGCAAGGCUCUUUAUCUCUAUUAUGCAAG

How the values were obtained:
nucleocapsid protein N [1] = molecular target: nucleocapsid protein N (Rift Valley fever virus, UniProt P21700 1-245); experiment: filter binding
Target sequence in this assay (P21700 whole entry): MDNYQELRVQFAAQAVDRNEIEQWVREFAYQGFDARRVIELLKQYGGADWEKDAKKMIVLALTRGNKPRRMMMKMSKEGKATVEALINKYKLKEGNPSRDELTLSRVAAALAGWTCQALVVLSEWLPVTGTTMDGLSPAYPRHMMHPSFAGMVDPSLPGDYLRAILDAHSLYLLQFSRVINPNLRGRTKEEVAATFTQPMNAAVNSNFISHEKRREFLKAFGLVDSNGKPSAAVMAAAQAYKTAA

nucleocapsid protein N [2] = molecular target: nucleocapsid protein N (Rift Valley fever virus, UniProt P21700 1-245); experiment: filter binding; remark: listed apart in the source
Target sequence in this assay (P21700 whole entry): as above

| Binder | binding result (nucleocapsid protein N [1]) | binding result (nucleocapsid protein N [2]) |
| --- | --- | --- |
| B1 | binds |  |
| B2 |  | binds |
| B3 | binds |  |
| B4 | binds |  |
